# Reference: the supplement of paper PMC12042874
# ± gives the uncertainty stated by the source.
# Test: amyloid nucleation score (Sup35N fusion, yeast selection) (log enrichment); library NNK2; higher = more nucleation; inactive = no reads after selection
# Procedure, shortened: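 The nucleation score is a DiMSum log enrichment of output over input reads, centred on the mode score of non-aggregating sequences. Sequences under 100 input reads were excluded, and reads came from Illumina sequencing of plasmid inserts. Psi-negative yeast expressing Sup35N fused to peptides of 20 random codons were induced with 100 μM copper sulfate for 24 hours and grown 7 days at 30°C on medium lacking adenine and uracil. Random libraries had three technical output replicates.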
row,Substance,amyloid nucleation score
1,YLHHIRCGYWVVVFVSTGSA,-0.252 ± 0.41
2,YLIPFMYAKCLSWVILRK,0.029 ± 0.23
3,YLLGKSYF,-1.08 ± 0.36
4,YLLRYYGGSFNHLMCWFRSP,2.6 ± 0.06
5,YLLSNWTNKVSWFLCVRPQS,2.23 ± 0.12
6,YLLYYNKWGLIK,inactive
7,YLNCDSFMRSVVYFNLWDIG,-1.57 ± 0.75
8,YLPRRSGRLRPGMRNNMPFR,0.12 ± 0.28
9,YLRFYRSIINILIKGSAFCV,-1.49 ± 1.1
10,YLRRGNKLCESTLVVTCTMV,-0.087 ± 1
11,YLRRL,-0.775 ± 0.61
12,YLTEALPDRSRYRSTSVMCV,1.86 ± 0.32
13,YLVNNNFFVTIVILVWRTGV,1.39 ± 0.18
14,YMCCFYAVGFPFDYKLGFVR,4.35 ± 0.068
15,YMDNCSYRYSVTESTRNTAG,0.17 ± 0.74
16,YMHILLLRFVQILTIRIVLL,-0.85 ± 0.37
17,YMKNSGHDMASLRNIYLIFR,5.15 ± 0.075
18,YMLINAMVTFFMHGVDRKRR,5.516 ± 0.055
19,YMLLRSYVFTKLLRLHCYRN,inactive
20,YMLNHVIQNMSSWCEVT,-0.103 ± 0.34
21,YMRVLGVDGHIRCVWLD,inactive
22,YMRVLYIRRLWIHFL,1.92 ± 0.18

row,Substance,amyloid nucleation score
1,YMYGVNNASSF,5.79 ± 0.054
2,YMYILAVLSVSSLIVNYDLK,inactive
3,YNFLWWSMKDT,inactive
4,YNKGWR,inactive
5,YNMGNSGLGGTRWEIICFAI,-1.02 ± 0.5
6,YNPSYLMELNEV,-0.376 ± 0.55
7,YNRLMVGRPRLQHLSL,-1.51 ± 0.39
8,YNTQVCEVVMWGQHPTTLSS,-0.418 ± 0.41
9,YNWVNTPGHVNL,-1.4 ± 0.62
10,YNYLCWNRKKGANRTCVSGR,-0.502 ± 0.44
11,YPFILVVTIEYACLVRRLGV,-0.309 ± 0.23
12,YPGWPMKTVQ,3.97 ± 0.05
13,YPRALIHVWKKSLVHTSRCR,7.14 ± 0.079
14,YPYSPLSKRRNLRWINFVRC,-1.46 ± 1.1
15,YQAGWDEVGSLCLRVRNEKL,4.38 ± 0.074
16,YQGNIRVGISRSRK,0.36 ± 0.41
17,YQGSLGSDMAISKLFDSDYE,-0.656 ± 1.1
18,YQHDT,0.871 ± 0.27
19,YRCSDLYK,2.47 ± 0.29
20,YRDRINSNYFALDFNILLHY,3.57 ± 0.046
21,YRGQLARCDILHSWQTVCSM,-0.337 ± 0.49
22,YRLAFKMRNHGYQVELGLSV,-0.088 ± 1.1

row,Substance,amyloid nucleation score
1,YRLVHNSKREPGWRSCEWDH,0.046 ± 0.63
2,YRRSPFETSGLQSCYCGSIG,-0.003 ± 1.1
3,YRSIC,-1.63 ± 0.75
4,YRTPYFIAIQDQRYCLVSLG,-0.87 ± 0.45
5,YRVNALKQIMLRLKQFCRLA,-0.647 ± 0.64
6,YRVYLVFYDFVFVFYMSKYL,inactive
7,YRYCSCMNLAWERFGNPEGQ,-0.399 ± 0.46
8,YSAPCGGDGESWDGFKMMEH,0.053 ± 1.1
9,YSEQNKWSRFVTDGGNLV,-0.802 ± 0.61
10,YSFFCSMILYPIHDNVGWSF,4.86 ± 0.088
11,YSFLWSVTATFDVTIISGCA,3.1 ± 0.05
12,YSFNALRRY,0.632 ± 0.25
13,YSFRGWSSSVWVTGWCGRSA,0.45 ± 0.62
14,YSFVCIRIGPLKEVCKLNSC,-0.774 ± 1.1
15,YSIKQAY,inactive
16,YSISQLWYTLTIHVPFHPLK,-0.114 ± 0.15
17,YSLLNVSHVVFTSA,-0.71 ± 0.61
18,YSRFYLYMSRRGMRS,-0.122 ± 0.53
19,YSRWRSLCTGAAFPGFWLNT,1.96 ± 0.14
20,YSSCLCLQCTRMQTPMVQFL,0.032 ± 0.53
21,YSSFDISLYFGNHHWSLMTR,4.11 ± 0.078
22,YSSSKNTVVMSAKSMVRLRT,0.52 ± 0.56

row,Substance,amyloid nucleation score
1,YSTTDHKWSRNLGIIMVVMW,0.185 ± 0.48
2,YSVDACMMNGSVDKTVSFR,0.122 ± 1.1
3,YSVLTLED,0.374 ± 0.29
4,YTANLWYQAWMYSYCENPPT,inactive
5,YTAWMALKNGRLVSGFKAR,0.009 ± 0.34
6,YTFGTNWVCW,3.6 ± 0.062
7,YTFYLNF,5.27 ± 0.053
8,YTTQLGWWFFRGRTTLNKWV,1.06 ± 0.61
9,YTVYFSVGVVVE,-1.42 ± 0.49
10,YVCLFEFVMVCCDFTLFCKV,0.585 ± 0.8
11,YVDTRLKTSVLFRK,3.93 ± 0.043
12,YVHMMSMKPHQLINCLRLFY,-1.2 ± 0.74
13,YVLDFSNWIGDTADSIVAV,0.145 ± 0.56
14,YVLIVRYILGSSLRELAYGR,-0.38 ± 0.3
15,YVLKLRRSRQSLSHRPALLY,inactive
16,YVLRYYALVLYFLICWYYAY,0.215 ± 0.57
17,YVRKVKA,0.276 ± 1
18,YVSFMGNSNMFVKLFLRGCI,0.391 ± 0.2
19,YVVKWPCGLTPCALPTPIRQ,0.969 ± 0.21
20,YVWSWVGQYCRVIAAHGIWW,0.79 ± 0.26
